The text below walks through data of US20250250355A1.

This experiment has as its target human SIRPα-isoform 2-his protein (human). Put plainly: indirect ELISA on coated human SIRPα-isoform 2-his, OD(450-630); negative control, curve not visible in the scan. Background: In an ELISA, binding on a coated surface is turned into a signal by an enzyme label.

Chain of human SIRPα-isoform 2-his protein (human) (chain, as listed by the source limits assumed): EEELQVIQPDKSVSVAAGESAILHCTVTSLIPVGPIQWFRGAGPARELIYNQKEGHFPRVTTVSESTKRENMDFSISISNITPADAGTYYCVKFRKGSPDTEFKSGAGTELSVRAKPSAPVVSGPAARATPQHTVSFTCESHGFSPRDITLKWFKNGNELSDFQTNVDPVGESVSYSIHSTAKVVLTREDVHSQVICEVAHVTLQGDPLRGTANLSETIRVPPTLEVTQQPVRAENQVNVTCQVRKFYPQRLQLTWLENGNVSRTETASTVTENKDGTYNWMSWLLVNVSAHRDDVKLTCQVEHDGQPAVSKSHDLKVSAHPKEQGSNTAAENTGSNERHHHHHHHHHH

A word on the EC50: it is the midpoint of the concentration-response curve. hIgG (antibody) came in with an EC50 of 18.8 nM.
